Results as given in IntAct's records for PubMed 21295698.

Assays:
ogt1_human OGT [1] = biological target: ogt1_human OGT (UniProt O15294)
ogt1_human OGT [2] = biological target: ogt1_human OGT (UniProt O15294); remark: listed apart in the source

Sequence of UniProt O15294 (O15294 whole entry): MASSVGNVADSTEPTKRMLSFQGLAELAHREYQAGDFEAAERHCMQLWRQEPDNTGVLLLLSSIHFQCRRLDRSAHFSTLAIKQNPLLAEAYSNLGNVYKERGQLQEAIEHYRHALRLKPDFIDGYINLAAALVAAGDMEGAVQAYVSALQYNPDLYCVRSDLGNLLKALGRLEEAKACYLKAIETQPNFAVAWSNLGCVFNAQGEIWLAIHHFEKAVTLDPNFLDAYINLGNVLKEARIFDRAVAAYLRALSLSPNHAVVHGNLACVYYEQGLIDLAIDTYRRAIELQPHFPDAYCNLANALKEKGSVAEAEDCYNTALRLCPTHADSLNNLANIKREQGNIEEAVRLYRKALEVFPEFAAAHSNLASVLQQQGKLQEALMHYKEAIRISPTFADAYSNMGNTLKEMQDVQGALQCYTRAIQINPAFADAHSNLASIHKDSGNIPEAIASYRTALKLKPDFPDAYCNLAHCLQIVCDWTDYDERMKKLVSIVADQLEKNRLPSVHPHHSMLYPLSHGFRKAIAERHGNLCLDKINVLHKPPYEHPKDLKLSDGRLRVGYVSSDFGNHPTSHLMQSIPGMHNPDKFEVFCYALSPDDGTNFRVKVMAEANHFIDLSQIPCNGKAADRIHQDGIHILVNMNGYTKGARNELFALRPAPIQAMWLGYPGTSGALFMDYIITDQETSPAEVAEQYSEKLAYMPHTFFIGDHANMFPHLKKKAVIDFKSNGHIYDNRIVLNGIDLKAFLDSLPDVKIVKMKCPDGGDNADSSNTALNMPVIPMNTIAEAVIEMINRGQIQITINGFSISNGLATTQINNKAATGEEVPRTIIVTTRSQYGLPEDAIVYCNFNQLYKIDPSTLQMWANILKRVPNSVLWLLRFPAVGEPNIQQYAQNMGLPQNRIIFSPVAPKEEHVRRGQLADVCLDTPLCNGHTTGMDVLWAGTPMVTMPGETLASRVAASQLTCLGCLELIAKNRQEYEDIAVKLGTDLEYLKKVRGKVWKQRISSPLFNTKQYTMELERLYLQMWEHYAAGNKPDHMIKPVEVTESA

Substance | effect of a mutation on the interaction (ogt1_human OGT [1]) | effect of a mutation on the interaction (ogt1_human OGT [2])
Host cell factor 1 (Homo sapiens), P51610 C1075A | decreasing interaction | –
Host cell factor 1 (Homo sapiens), P51610 C1080A | decreasing interaction | –
Host cell factor 1 (Homo sapiens), P51610 E1081A | disrupting interaction | increasing interaction
Host cell factor 1 (Homo sapiens), P51610 H1083A | decreasing interaction | –
Host cell factor 1 (Homo sapiens), P51610 N1077A | decreasing interaction | –
Host cell factor 1 (Homo sapiens), P51610 P1078A | decreasing interaction | –
Host cell factor 1 (Homo sapiens), P51610 P1079A | decreasing interaction | –
Host cell factor 1 (Homo sapiens), P51610 T1082A | decreasing interaction | –
Host cell factor 1 (Homo sapiens), P51610 T1085A | decreasing interaction | –
Host cell factor 1 (Homo sapiens), P51610 T1087A | disrupting interaction | –
Host cell factor 1 (Homo sapiens), P51610 T1088A | disrupting interaction | –
Host cell factor 1 (Homo sapiens), P51610 T1090A | disrupting interaction | –
Host cell factor 1 (Homo sapiens), P51610 T1092A | disrupting interaction | –
